Assay results: article PMC5218472 (PLoS Biology, 2017)

System: Ba/F3-gp130-hIL-6R and Ba/F3-gp130-hIL-6R-4N cells
Test: IL-6R internalization assay (cell-surface turnover, flow cytometry)
Format: cell-based
Conditions: for IL-6R remaining at the cell surface (0 min = 100), mean: mean of 3
Procedure: Fig 6 N- and O-linked glycosylation are dispensable for intracellular transport and signaling of the IL-6R. (A–G) Equal numbers of Ba/F3-gp130 cells were incubated for 48 h with increasing amounts (0–100 ng/ml) of either IL-6 or Hyper-IL-6. The stably transduced IL-6R variant is indicated above the diagram. One representative experiment out of three performed is shown (mean ± SD, biological triplicates). (H) Equal numbers of Ba/F3-gp130-hIL-6R and Ba/F3-gp130-hIL-6R-4N cells were labeled with an anti-IL-6R antibody and incubated at 37°C for the indicated time periods. The remaining cell-surface expression of the IL-6R was analyzed via flow cytometry. Data shown are the mean ± SD from three independent experiments.
In order to analyze internalization of the IL-6R, 1 x 10^7 cells were washed in PBS, seeded onto a 10 cm dish in serum-free DMEM, and starved for 2 h at 37°C. Afterwards, cells were again washed with PBS, and the IL-6R was labeled with the 4–11 antibody diluted in FACS buffer (1% BSA in PBS). After 1 h incubation on ice, cells were washed and resuspended in 10 ml serum-free DMEM, seeded onto a 10 cm dish, and shifted back to 37°C. At the time points indicated (0–180 min), 1 ml of the cell suspension was taken from the dish, transferred into a 1.5 ml reaction tube, and kept on ice to inhibit further internalization of the IL-6R. After obtaining the last sample, the cells were washed in cold FACS buffer, and the remaining IL-6R on the cell surface was stained with an APC-conjugated anti-mouse mAb. The cells were washed again and analyzed by flow cytometry using the BD Biosciences FACS Canto II (Becton-Dickinson, Heidelberg, Germany).

B1: PV: wild-type human IL-6R, cleavage site Pro-355/Val-356 (protein)
chain: LAPRRCPAQEVARGVLTSLPGDSVTLTCPGVEPEDNATVHWVLRKPAAGSHPSRWAGMGRRLLLRSVQLHDSGNYSCYRAGRPAGTVHLLVDVPPEEPQLSCFRKSPLSNVVCEWGPRSTPSLTTKAVLLVRKFQNSPAEDFQEPCQYSQESQKFSCQLAVPEGDSSFYIVSMCVASSVGSKFSKTQTFQGCGILQPDPPANITVTAVARNPRWLSVTWQDPHSWNSSFYRLRFELRYRAERSKTFTTWMVKDLQHHCVIHDAWSGLRHVVQLRAQEEFGQGEWSEWSPEAMGTPWTESRSPPAENEVSTPMQALTTNKDDDNILFRDSANATSLPVQDSSSVPLPTFLVAGGSLAFGTLLCIAIVLRFKKTWKLRALKEGKTSMHPPYSLGQLVPERPRPTPVLVPLISPPVSPSSLGSDNTSSHNRPDARDPRSPYDISNTDYFFPR
modifications: N-linked glycans at Asn-55, Asn-93, Asn-221, Asn-245 and Asn-350, O-linked glycan at Thr-352 (mapped on sIL-6R shed from transfected HEK293 cells)
In the case of B1, the “IL-6R remaining at the cell surface (0 min = 100), mean” value (from here on “IL-6R remaining at the cell surface”) (block 1 (wt), 15 min) is reported as 79.6667, the “IL-6R remaining at the cell surface” value (block 1 (wt), 30 min) is reported as 59 and the “IL-6R remaining at the cell surface” value (block 1 (wt), 60 min) is reported as 46. For the same molecule, the “IL-6R remaining at the cell surface” value (block 1 (wt), 90 min) was 35, the “IL-6R remaining at the cell surface” value (block 1 (wt), 120 min) was 23.6667 and the “IL-6R remaining at the cell surface” value (block 1 (wt), 150 min) was 16.6667. For the same molecule, the “IL-6R remaining at the cell surface” value (block 1 (wt), 180 min) was 13.3333, the “IL-6R remaining at the cell surface” value (block 2, 15 min) was 85.6667 and the “IL-6R remaining at the cell surface” value (block 2, 30 min) was 65. The “IL-6R remaining at the cell surface” value (block 2, 60 min) was 49.3333, the “IL-6R remaining at the cell surface” value (block 2, 90 min) was 45 and the “IL-6R remaining at the cell surface” value (block 2, 120 min) was 35.6667. For the same molecule, the “IL-6R remaining at the cell surface” value (block 2, 150 min) was 27.6667, the “IL-6R remaining at the cell surface” value (block 2, 180 min) was 24.3333 and the “t1/2 of IL-6R at the cell surface” value (pulse-chase with 4-11 antibody, 37°C, flow cytometry, mean ± SD, n = 3) was 44.1 ± 8.1 min.
